Columns and labels:
LFA-1 [1] = molecular target: T1, LFA-1 (mouse (endogenous in OT-II T cells), UniProt P24063 24-1162; P11835 24-771); assay: single-molecule tracking by TIRF microscopy on supported lipid bilayers; as a1 but with 1 mM Mn^2+ and in the absence of pMHC, similar ICAM-1 density; conditions: one partner purified
T1 construct: integrin αL subunit of LFA-1, mouse; integrin β2 subunit of LFA-1, mouse; also called αL/β2 integrin; source: endogenous, on naive OT-II T cells and OT-II T cell blasts (mouse)

LFA-1 [2] = molecular target: T1, LFA-1; assay: single-molecule tracking by TIRF microscopy on supported lipid bilayers; ATTO-647N-labeled ICAM-1-GPI (300 molecules/μm^2) and I-A^b-OVA peptide (200 molecules/μm^2) in supported planar lipid bilayers; naive OT-II T cells or OT-II T cell blasts (also Rap1b KO, Mst1/2 DKO, kindlin-3 or NDR1 knock-down cells) on top; 30 frames/s for 200 s; arrests of 0.5 to 200 s counted as binding; koff from a single exponential fit …; conditions: one partner purified

T1 sequence (P24063 24-1162, chain 1 of 2): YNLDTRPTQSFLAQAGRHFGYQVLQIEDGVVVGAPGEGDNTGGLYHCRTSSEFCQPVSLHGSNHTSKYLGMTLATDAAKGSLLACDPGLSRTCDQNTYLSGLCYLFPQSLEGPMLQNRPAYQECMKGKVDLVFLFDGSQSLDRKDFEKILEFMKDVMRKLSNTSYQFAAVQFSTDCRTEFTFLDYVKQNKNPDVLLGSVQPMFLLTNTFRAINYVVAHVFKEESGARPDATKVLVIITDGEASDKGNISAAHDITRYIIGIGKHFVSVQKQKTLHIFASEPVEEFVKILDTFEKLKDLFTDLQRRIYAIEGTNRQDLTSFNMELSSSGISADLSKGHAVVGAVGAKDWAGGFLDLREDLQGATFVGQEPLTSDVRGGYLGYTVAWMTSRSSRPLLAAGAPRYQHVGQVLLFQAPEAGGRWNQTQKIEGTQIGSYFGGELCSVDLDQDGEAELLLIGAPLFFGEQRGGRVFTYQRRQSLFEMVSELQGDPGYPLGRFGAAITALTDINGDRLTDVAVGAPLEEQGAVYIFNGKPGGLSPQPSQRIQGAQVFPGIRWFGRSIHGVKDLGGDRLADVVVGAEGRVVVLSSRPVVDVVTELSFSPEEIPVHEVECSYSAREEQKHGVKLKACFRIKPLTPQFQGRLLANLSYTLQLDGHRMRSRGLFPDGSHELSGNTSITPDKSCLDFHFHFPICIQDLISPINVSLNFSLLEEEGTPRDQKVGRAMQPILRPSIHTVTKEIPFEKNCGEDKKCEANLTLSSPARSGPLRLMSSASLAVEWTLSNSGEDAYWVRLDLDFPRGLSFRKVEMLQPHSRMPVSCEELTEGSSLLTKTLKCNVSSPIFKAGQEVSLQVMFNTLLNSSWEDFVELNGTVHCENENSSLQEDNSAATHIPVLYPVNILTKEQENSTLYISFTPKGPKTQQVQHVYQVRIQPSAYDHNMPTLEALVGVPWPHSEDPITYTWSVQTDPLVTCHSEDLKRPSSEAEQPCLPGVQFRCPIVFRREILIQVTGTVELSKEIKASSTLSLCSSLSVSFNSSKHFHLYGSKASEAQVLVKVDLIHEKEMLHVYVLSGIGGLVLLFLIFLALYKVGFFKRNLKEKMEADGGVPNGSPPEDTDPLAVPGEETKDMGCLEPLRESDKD
T1 sequence (P11835 24-771, chain 2 of 2): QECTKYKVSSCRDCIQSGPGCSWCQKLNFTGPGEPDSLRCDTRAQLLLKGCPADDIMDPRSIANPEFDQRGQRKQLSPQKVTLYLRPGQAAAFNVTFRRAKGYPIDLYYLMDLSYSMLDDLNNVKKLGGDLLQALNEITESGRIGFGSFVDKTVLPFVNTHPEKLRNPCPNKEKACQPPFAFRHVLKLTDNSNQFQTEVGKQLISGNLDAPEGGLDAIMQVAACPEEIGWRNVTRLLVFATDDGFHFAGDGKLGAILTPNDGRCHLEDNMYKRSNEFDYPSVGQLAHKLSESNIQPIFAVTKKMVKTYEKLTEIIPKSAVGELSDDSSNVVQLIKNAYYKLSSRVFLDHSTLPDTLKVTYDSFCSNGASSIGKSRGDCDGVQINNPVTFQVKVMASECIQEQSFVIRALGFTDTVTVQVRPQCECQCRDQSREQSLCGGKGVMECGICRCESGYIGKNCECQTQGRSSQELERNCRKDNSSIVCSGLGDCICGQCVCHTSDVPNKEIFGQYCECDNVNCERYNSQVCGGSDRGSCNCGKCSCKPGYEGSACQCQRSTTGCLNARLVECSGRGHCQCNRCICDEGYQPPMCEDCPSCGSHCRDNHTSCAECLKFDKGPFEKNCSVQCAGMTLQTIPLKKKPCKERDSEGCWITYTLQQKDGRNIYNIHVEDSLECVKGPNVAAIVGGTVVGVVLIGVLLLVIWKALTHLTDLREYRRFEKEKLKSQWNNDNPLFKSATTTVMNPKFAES

- fold increase of binding durations longer than 10 s with Mn^2+ (LFA-1 [1]): 2 fold
- koff (LFA-1 [2]): 0.032 s⁻¹
B1: Mouse ICAM-1-GPI (ligand)
chain: QVSIHPREAFLPQGGSVQVNCSSSCKEDLSLGLETQWLKDELESGPNWKLFELSEIGEDSSPLCFENCGTVQSSASATITVYSFPESVELRPLPAWQQVGKDLTLRCHVDGGAPRTQLSAVLLRGEEILSRQPVGGHPKDPKEITFTVLASRGDHGANFSCRTELDLRPQGLALFSNVSEARSLRTFDLPATIPKLDTPDLLEVGTQQKLFCSLEGLFPASEARIYLELGGQMPTQESTNSSDSVSATALVEVTEEFDRTLPLRCVLELADQILETQRTLTVYNFSAPVLTLSQLEVSEGSQVTVKCEAHSGSKVVLLSGVEPRPPTPQVQFTLNASSEDHKRSFFCSAALEVAGKFLFKNQTLELHVLYGPRLDETDCLGNWTWQEGSQQTLKCQAWGNPSPKMTCRRKADGALLPIGVVKSVKQEMNGTYVCHAFSSHGNVTRNVYLTVLYHSQNN
modifications: GPI anchor; labeled with ATTO-647N-NHS-ester
